The values below are quoted from earlier work in publication PMC8900815.

In this data set the target is His124 (UniProt position 124, EWVKGHAGHPE). Nature of the data set: NMR. The note with it: metal-free (no divalent cation bound).

Consider “Ribonuclease HI (RNase HI) (Escherichia coli)”, for which the pKa entry is given as “around 7”.
